Experimental data taken from patent publication US20220162265A1 (University of Washington, published 2022).

Molecular target: the molecule itself
Experiment: self-assembly into 2D arrays, negative-stain EM and AFM
Procedure: Samples were applied to glow-discharged EM grids and stained with either uranyl acetate (UA), uranyl formate (UF) or NanoW™ (Nanoprobes, Inc, Yaphank, N.Y., USA) for screening or analysis. Data was collected using a Tecnai T12 equipped with a Gatan Orius CCD. CTF estimation was performed using GCTF (10), and all other image processing steps were completed via Relion™ 2.1 (11). For the analysis in FIG. 2G, 421 2D array segments were picked manually from 42 micrographs, and the resulting 2D class average used as a template for Relion™ autopicking, which yielded 5,823 2D array segments. After subsequent 2D classification and alignment, the dominant 2D class consisted of 1,893 array segments (each approximately 20 nm diameter).

B1: 2D-HP (designed binder)
chain: MGSRTMYIRALEQSLREQEELAKRLKELLRELERLQREGSSDRDVKVLLWEIEALVEEIEKLARLQKELVEKLKRQGSGNMYIRALEQSLREQEELAKRLKELLRELERLQREGSSDRDVKVLLWEIEALVEEIEKLARLQKELVEKLKRQD
notes: Expressed from pET28b(+) between NdeI and XhoI; also called design 2D-HP; designed 2D assembly 2D-HP
  binding result: binds
